Reference: patent US20240199745A1, “ANTI-EGFR ANTIBODY DRUG CONJUGATES” (priority 2016, published 2024)

B1: AbB-TX (antibody, human IgG1, kappa, V domains shown)
VH: EVQLQESGPGLVKPSQTLSLTCTVSGYSISNDFAWNWIRQPPGKGLEWMGYISYKGNTRYQPSLKSRITISRDTSKNQFFLKLNSVTAADTATYYCVTASRGFPWWGQGTLVTVSS
VL: DIQMTQSPSSMSVSVGDRVTITCHSSQDINSNIGWLQQKPGKSFKGLIYHGTNLDDGVPSRFSGSGSGTDYTLTISSLQPEDFATYYCVQYAQFPWTFGGGTKLEIKR
modifications: synthon TX on reduced interchain cysteines; average DAR 2.2 per ADC
B2: AbG-TV (antibody, human IgG1, kappa, V domains shown)
VH: EVQLQESGPGLVKPSQTLSLTCTVSGYSISNDFAWNWIRQLPGKGLEWMGYISYKGNTRYQPSLKSRITISRDTSKNQFFLKLNSVTAADTATYYCVTASRGLPYWGQGTLVTVSS
VL: DIQMTQSPSSMSVSVGDRVTITCHSSQDITYNIGWLQQKPGKSFKGLIYHGANLDDGVPSRFSGSGSGTDYTLTISSLQPEDFATYYCVQYDEFPWTFGGGTKLEIKR
modifications: synthon TV on reduced interchain cysteines; average DAR 3.7 per ADC
B3: AbK-TV (antibody, human IgG1, kappa, V domains shown)
VH: EVQLQESGPGLVKPSQTLSLTCTVSGYSISRDFAWNWIRQPPGKGLEWMGYISYNGNTRYQPSLKSRITISRDTSKNQFFLKLNSVTAADTATYYCVTASRGFPWWGQGTLVTVSS
VL: DIQMTQSPSSMSVSVGDRVTITCHSSQDITYNVGWLQQKPGKSFKGLIYHGSNLDHGVPSRFSGSGSGTDYTLTISSLQPEDFATYYCVQYDDFPWTFGGGTKLEIKR
modifications: synthon TV on reduced interchain cysteines; average DAR 2.4 per ADC
B4: AbG-AAA (antibody, human IgG1, kappa, V domains shown)
VH: EVQLQESGPGLVKPSQTLSLTCTVSGYSISNDFAWNWIRQLPGKGLEWMGYISYKGNTRYQPSLKSRITISRDTSKNQFFLKLNSVTAADTATYYCVTASRGLPYWGQGTLVTVSS
VL: DIQMTQSPSSMSVSVGDRVTITCHSSQDITYNIGWLQQKPGKSFKGLIYHGANLDDGVPSRFSGSGSGTDYTLTISSLQPEDFATYYCVQYDEFPWTFGGGTKLEIKR
modifications: synthon AAA on reduced interchain cysteines; average DAR 1.9 per ADC
B5: AbB-YY (antibody, human IgG1, kappa, V domains shown)
VH: EVQLQESGPGLVKPSQTLSLTCTVSGYSISNDFAWNWIRQPPGKGLEWMGYISYKGNTRYQPSLKSRITISRDTSKNQFFLKLNSVTAADTATYYCVTASRGFPWWGQGTLVTVSS
VL: DIQMTQSPSSMSVSVGDRVTITCHSSQDINSNIGWLQQKPGKSFKGLIYHGTNLDDGVPSRFSGSGSGTDYTLTISSLQPEDFATYYCVQYAQFPWTFGGGTKLEIKR
modifications: synthon YY on reduced interchain cysteines; average DAR 2.2 per ADC
B6: AbA-TX (antibody, human IgG1, kappa, V domains shown)
VH: EVQLQESGPGLVKPSQTLSLTCTVSGYSISRDFAWNWIRQPPGKGLEWMGYISYNGNTRYQPSLKSRITISRDTSKNQFFLKLNSVTAADTATYYCVTASRGFPYWGQGTLVTVSS
VL: DIQMTQSPSSMSVSVGDRVTITCHSSQDINSNIGWLQQKPGKSFKGLIYHGTNLDDGVPSRFSGSGSGTDYTLTISSLQPEDFATYYCVQYAQFPWTFGGGTKLEIKR
modifications: synthon TX on reduced interchain cysteines; average DAR 2.8 per ADC
B7: AbK-YY (antibody, human IgG1, kappa, V domains shown)
VH: EVQLQESGPGLVKPSQTLSLTCTVSGYSISRDFAWNWIRQPPGKGLEWMGYISYNGNTRYQPSLKSRITISRDTSKNQFFLKLNSVTAADTATYYCVTASRGFPWWGQGTLVTVSS
VL: DIQMTQSPSSMSVSVGDRVTITCHSSQDITYNVGWLQQKPGKSFKGLIYHGSNLDHGVPSRFSGSGSGTDYTLTISSLQPEDFATYYCVQYDDFPWTFGGGTKLEIKR
modifications: synthon YY on reduced interchain cysteines; average DAR 1.7 per ADC
B8: AbB-TV (antibody, human IgG1, kappa, V domains shown)
VH: EVQLQESGPGLVKPSQTLSLTCTVSGYSISNDFAWNWIRQPPGKGLEWMGYISYKGNTRYQPSLKSRITISRDTSKNQFFLKLNSVTAADTATYYCVTASRGFPWWGQGTLVTVSS
VL: DIQMTQSPSSMSVSVGDRVTITCHSSQDINSNIGWLQQKPGKSFKGLIYHGTNLDDGVPSRFSGSGSGTDYTLTISSLQPEDFATYYCVQYAQFPWTFGGGTKLEIKR
modifications: synthon TV on reduced interchain cysteines; average DAR 2.3 per ADC
B9: AbG-TX (antibody, human IgG1, kappa, V domains shown)
VH: EVQLQESGPGLVKPSQTLSLTCTVSGYSISNDFAWNWIRQLPGKGLEWMGYISYKGNTRYQPSLKSRITISRDTSKNQFFLKLNSVTAADTATYYCVTASRGLPYWGQGTLVTVSS
VL: DIQMTQSPSSMSVSVGDRVTITCHSSQDITYNIGWLQQKPGKSFKGLIYHGANLDDGVPSRFSGSGSGTDYTLTISSLQPEDFATYYCVQYDEFPWTFGGGTKLEIKR
modifications: synthon TX on reduced interchain cysteines; average DAR 3.3 per ADC
B10: AbG-AAD (antibody, human IgG1, kappa, V domains shown)
VH: EVQLQESGPGLVKPSQTLSLTCTVSGYSISNDFAWNWIRQLPGKGLEWMGYISYKGNTRYQPSLKSRITISRDTSKNQFFLKLNSVTAADTATYYCVTASRGLPYWGQGTLVTVSS
VL: DIQMTQSPSSMSVSVGDRVTITCHSSQDITYNIGWLQQKPGKSFKGLIYHGANLDDGVPSRFSGSGSGTDYTLTISSLQPEDFATYYCVQYDEFPWTFGGGTKLEIKR
modifications: synthon AAD on reduced interchain cysteines; average DAR 3.4 per ADC
B11: AbG-CZ (antibody, human IgG1, kappa, V domains shown)
VH: EVQLQESGPGLVKPSQTLSLTCTVSGYSISNDFAWNWIRQLPGKGLEWMGYISYKGNTRYQPSLKSRITISRDTSKNQFFLKLNSVTAADTATYYCVTASRGLPYWGQGTLVTVSS
VL: DIQMTQSPSSMSVSVGDRVTITCHSSQDITYNIGWLQQKPGKSFKGLIYHGANLDDGVPSRFSGSGSGTDYTLTISSLQPEDFATYYCVQYDEFPWTFGGGTKLEIKR
modifications: synthon CZ on reduced interchain cysteines; average DAR 3.4 per ADC
B12: AbK-TX (antibody, human IgG1, kappa, V domains shown)
VH: EVQLQESGPGLVKPSQTLSLTCTVSGYSISRDFAWNWIRQPPGKGLEWMGYISYNGNTRYQPSLKSRITISRDTSKNQFFLKLNSVTAADTATYYCVTASRGFPWWGQGTLVTVSS
VL: DIQMTQSPSSMSVSVGDRVTITCHSSQDITYNVGWLQQKPGKSFKGLIYHGSNLDHGVPSRFSGSGSGTDYTLTISSLQPEDFATYYCVQYDDFPWTFGGGTKLEIKR
modifications: synthon TX on reduced interchain cysteines; average DAR 2.2 per ADC
B13: AbK-AAA (antibody, human IgG1, kappa, V domains shown)
VH: EVQLQESGPGLVKPSQTLSLTCTVSGYSISRDFAWNWIRQPPGKGLEWMGYISYNGNTRYQPSLKSRITISRDTSKNQFFLKLNSVTAADTATYYCVTASRGFPWWGQGTLVTVSS
VL: DIQMTQSPSSMSVSVGDRVTITCHSSQDITYNVGWLQQKPGKSFKGLIYHGSNLDHGVPSRFSGSGSGTDYTLTISSLQPEDFATYYCVQYDDFPWTFGGGTKLEIKR
modifications: synthon AAA on reduced interchain cysteines; average DAR 1.6 per ADC
B14: AbK-AAD (antibody, human IgG1, kappa, V domains shown)
VH: EVQLQESGPGLVKPSQTLSLTCTVSGYSISRDFAWNWIRQPPGKGLEWMGYISYNGNTRYQPSLKSRITISRDTSKNQFFLKLNSVTAADTATYYCVTASRGFPWWGQGTLVTVSS
VL: DIQMTQSPSSMSVSVGDRVTITCHSSQDITYNVGWLQQKPGKSFKGLIYHGSNLDHGVPSRFSGSGSGTDYTLTISSLQPEDFATYYCVQYDDFPWTFGGGTKLEIKR
modifications: synthon AAD on reduced interchain cysteines; average DAR 2.8 per ADC
B15: AbK-CZ (antibody, human IgG1, kappa, V domains shown)
VH: EVQLQESGPGLVKPSQTLSLTCTVSGYSISRDFAWNWIRQPPGKGLEWMGYISYNGNTRYQPSLKSRITISRDTSKNQFFLKLNSVTAADTATYYCVTASRGFPWWGQGTLVTVSS
VL: DIQMTQSPSSMSVSVGDRVTITCHSSQDITYNVGWLQQKPGKSFKGLIYHGSNLDHGVPSRFSGSGSGTDYTLTISSLQPEDFATYYCVQYDDFPWTFGGGTKLEIKR
modifications: synthon CZ on reduced interchain cysteines; average DAR 3.4 per ADC
B16: AbB-AAD (antibody, human IgG1, kappa, V domains shown)
VH: EVQLQESGPGLVKPSQTLSLTCTVSGYSISNDFAWNWIRQPPGKGLEWMGYISYKGNTRYQPSLKSRITISRDTSKNQFFLKLNSVTAADTATYYCVTASRGFPWWGQGTLVTVSS
VL: DIQMTQSPSSMSVSVGDRVTITCHSSQDINSNIGWLQQKPGKSFKGLIYHGTNLDDGVPSRFSGSGSGTDYTLTISSLQPEDFATYYCVQYAQFPWTFGGGTKLEIKR
modifications: synthon AAD on reduced interchain cysteines; average DAR 2.7 per ADC
B17: AbG-YY (antibody, human IgG1, kappa, V domains shown)
VH: EVQLQESGPGLVKPSQTLSLTCTVSGYSISNDFAWNWIRQLPGKGLEWMGYISYKGNTRYQPSLKSRITISRDTSKNQFFLKLNSVTAADTATYYCVTASRGLPYWGQGTLVTVSS
VL: DIQMTQSPSSMSVSVGDRVTITCHSSQDITYNIGWLQQKPGKSFKGLIYHGANLDDGVPSRFSGSGSGTDYTLTISSLQPEDFATYYCVQYDEFPWTFGGGTKLEIKR
modifications: synthon YY on reduced interchain cysteines; average DAR 2.2 per ADC

Tests used:
[1] = molecular target: human EGFR (huEGFR) over-expressed on mcl-1-/- mouse embryonic fibroblasts (human, UniProt P00533 25-1210); assay: cell-based or functional assay
[2] = molecular target: EGFR on EGFR positive non-small cell lung cancer cells NCI-H1650 (UniProt P00533 25-1210); assay: cell-based or functional assay

| Binder | huEGFR+ mcl-1-/- MEF EC50 [1] [nM] | H1650 CTG-3D EC50 [2] [µg/mL] | H1650 GFP Flourescence EC50 [2] [µg/mL] |
| --- | --- | --- | --- |
| B1 | 11 | 2.39 | 3.72 |
| B2 | 2.6 | 0.03 | 0.04 |
| B3 | 0.15 | 0.05 | 0.16 |
| B4 | 220 | 0.12 | 0.17 |
| B5 | 51 | 8.6 | 7.73 |
| B6 | 16 | > 40 | 13.9 |
| B7 | 47 | 0.49 | 1.09 |
| B8 | 2.4 | 0.86 | 0.74 |
| B9 | 5.3 | 0.15 | 0.51 |
| B10 | 108 | 0.02 | 0.03 |
| B11 | 3.4 | 0.07 | 0.25 |
| B12 | 0.79 | 1.07 | 1.47 |
| B13 | 3.4 | 0.11 | 0.16 |
| B14 | 0.4 | 0.01 | 0.06 |
| B15 | 0.1 | 0.08 | 0.21 |
| B16 | 4.6 | 0.16 | 0.59 |
| B17 | > 500 | 0.4 | 1.1 |
